The test addresses ecto-domain of integrin α5β1-Fc fusion protein. The experiment in a line: SPR. In general terms: SPR reads the build-up and loss of mass on a sensor chip optically.

B1: Fn + FnBPA-10 (FnBPA-10-bound Fn) (complex)
chain 1: not shown
chain 2: not shown
chain 3: KYEHGGNIIDIDFDSVPHIHGFNKHTEIIEEDTNKDKP
Turning to B1, the dissociation constant (Kd) (usually a measure of binding affinity in units of concentration) amounted to 260 nM; the ka1 (first step, bivalent analyte model) worked out at 61000 M⁻¹ s⁻¹; the ka2 (second step, bivalent analyte model) stood at 1.3e-05 RU^-1s^-1; the kd1 (first step, bivalent analyte model) came out at 0.015 s⁻¹. Also, the kd2 (second step, bivalent analyte model) amounted to 0.001 s⁻¹.

The values are drawn from PMC4951027.
